# Reference: IntAct's records for PubMed 25416956
# B1: Lipopolysaccharide-induced tumor necrosis factor-alpha factor (Homo sapiens), Q99732 (parent)
# chain: MSVPGPYQAATGPSSAPSAPPSYEETVAVNSYYPTPPAPMPGPTTGLVTGPDGKGMNPPSYYTQPAPIPNNNPITVQTVYVQHPITFLDRPIQMCCPSCNKMIVSQLSYNAGALTWLSCGSLCLLGCIAGCCFIPFCVDALQDVDHYCPNCRALLGTYKRL
# B2: Serotonin N-acetyltransferase (Homo sapiens), Q16613 (parent)
# chain: MSTQSTHPLKPEAPRLPPGIPESPSCQRRHTLPASEFRCLTPEDAVSAFEIEREAFISVLGVCPLYLDEIRHFLTLCPELSLGWFEEGCLVAFIIGSLWDKERLMQESLTLHRSGGHIAHLHVLAVHRAFRQQGRGPILLWRYLHHLGSQPAVRRAALMCEDALVPFYERFSFHAVGPCAITVGSLTFMELHCSLRGHPFLRRNSGC
# B3: Plakophilin-2 (Homo sapiens), Q99959 (parent)
# chain: MAAPGAPAEYGYIRTVLGQQILGQLDSSSLALPSEAKLKLAGSSGRGGQTVKSLRIQEQVQQTLARKGRSSVGNGNLHRTSSVPEYVYNLHLVENDFVGGRSPVPKTYDMLKAGTTATYEGRWGRGTAQYSSQKSVEERSLRHPLRRLEISPDSSPERAHYTHSDYQYSQRSQAGHTLHHQESRRAALLVPPRYARSEIVGVSRAGTTSRQRHFDTYHRQYQHGSVSDTVFDSIPANPALLTYPRPGTSRSMGNLLEKENYLTAGLTVGQVRPLVPLQPVTQNRASRSSWHQSSFHSTRTLREAGPSVAVDSSGRRAHLTVGQAAAGGSGNLLTERSTFTDSQLGNADMEMTLERAVSMLEADHMLPSRISAAATFIQHECFQKSEARKRVNQLRGILKLLQLLKVQNEDVQRAVCGALRNLVFEDNDNKLEVAELNGVPRLLQVLKQTRDLETKKQITDHTVNLRSRNGWPGAVAHACNPSTLGGQGGRITRSGVRDQPDQHGLLWNLSSNDKLKNLMITEALLTLTENIIIPFSGWPEGDYPKANGLLDFDIFYNVTGCLRNMSSAGADGRKAMRRCDGLIDSLVHYVRGTIADYQPDDKATENCVCILHNLSYQLEAELPEKYSQNIYIQNRNIQTDNNKSIGCFGSRSRKVKEQYQDVPMPEEKSNPKGVEWLWHSIVIRMYLSLIAKSVRNYTQEASLGALQNLTAGSGPMPTSVAQTVVQKESGLQHTRKMLHVGDPSVKKTAISLLRNLSRNLSLQNEIAKETLPDLVSIIPDTVPSTDLLIETTASACYTLNNIIQNSYQNARDLLNTGGIQKIMAISAGDAYASNKASKAASVLLYSLWAHTELHHAYKKAQFKKTDFVNSRTAKAYHSLKD
# partner: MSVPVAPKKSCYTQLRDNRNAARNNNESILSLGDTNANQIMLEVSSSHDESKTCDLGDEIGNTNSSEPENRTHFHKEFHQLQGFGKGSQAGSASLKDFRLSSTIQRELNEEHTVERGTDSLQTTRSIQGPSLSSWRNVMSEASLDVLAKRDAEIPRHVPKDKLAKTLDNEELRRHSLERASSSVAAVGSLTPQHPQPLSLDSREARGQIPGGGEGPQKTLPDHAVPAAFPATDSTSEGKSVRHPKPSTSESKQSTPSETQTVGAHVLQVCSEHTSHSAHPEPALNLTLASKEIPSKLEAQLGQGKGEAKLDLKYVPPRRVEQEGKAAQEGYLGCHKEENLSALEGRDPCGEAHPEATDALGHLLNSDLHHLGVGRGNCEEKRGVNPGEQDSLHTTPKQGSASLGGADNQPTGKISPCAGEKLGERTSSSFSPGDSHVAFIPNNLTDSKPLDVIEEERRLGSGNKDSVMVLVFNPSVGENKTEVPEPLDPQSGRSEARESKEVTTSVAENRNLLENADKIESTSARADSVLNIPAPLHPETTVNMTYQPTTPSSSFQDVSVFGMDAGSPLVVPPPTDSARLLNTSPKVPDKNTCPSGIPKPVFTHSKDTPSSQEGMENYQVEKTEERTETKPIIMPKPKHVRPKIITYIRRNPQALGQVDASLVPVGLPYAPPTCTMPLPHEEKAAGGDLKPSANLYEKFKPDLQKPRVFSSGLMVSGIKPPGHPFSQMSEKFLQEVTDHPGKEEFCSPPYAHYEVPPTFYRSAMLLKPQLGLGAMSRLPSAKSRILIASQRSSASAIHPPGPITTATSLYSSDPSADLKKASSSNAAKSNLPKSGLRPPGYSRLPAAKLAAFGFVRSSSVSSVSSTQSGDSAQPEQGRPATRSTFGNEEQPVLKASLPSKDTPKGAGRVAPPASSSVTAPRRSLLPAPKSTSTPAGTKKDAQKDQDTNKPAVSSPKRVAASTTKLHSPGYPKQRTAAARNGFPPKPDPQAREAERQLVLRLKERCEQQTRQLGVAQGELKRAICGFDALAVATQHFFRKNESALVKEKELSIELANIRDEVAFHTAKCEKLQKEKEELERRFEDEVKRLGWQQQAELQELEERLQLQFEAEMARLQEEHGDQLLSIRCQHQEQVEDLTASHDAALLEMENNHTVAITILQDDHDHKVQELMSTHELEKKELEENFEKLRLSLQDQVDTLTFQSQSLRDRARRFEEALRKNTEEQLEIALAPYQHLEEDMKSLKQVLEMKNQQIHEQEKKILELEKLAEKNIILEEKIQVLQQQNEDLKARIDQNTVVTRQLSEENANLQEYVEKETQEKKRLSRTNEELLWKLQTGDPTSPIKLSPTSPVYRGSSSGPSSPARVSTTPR
# Variants of: B1
# Conditions: with hgs_human HGS
row,Variant,effect of a mutation on the interaction
1,A111G,disrupting interaction

# Variants of: B1
# Conditions: with stam2_human STAM2, O75886
row,Variant,effect of a mutation on the interaction
1,A111G,disrupting interaction

# Variants of: B1
# Conditions: with reep6_human REEP6, Q96HR9
# Chain of reep6_human REEP6, Q96HR9 (Q96HR9 whole entry): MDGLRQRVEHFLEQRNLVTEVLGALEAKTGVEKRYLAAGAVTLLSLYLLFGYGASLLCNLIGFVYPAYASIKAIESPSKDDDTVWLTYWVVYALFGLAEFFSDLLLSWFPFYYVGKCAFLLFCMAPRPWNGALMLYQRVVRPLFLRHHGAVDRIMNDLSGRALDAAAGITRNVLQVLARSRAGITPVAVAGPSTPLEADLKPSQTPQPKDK
row,Variant,effect of a mutation on the interaction
1,A111G,disrupting interaction

# Variants of: B1
# Conditions: with UBQLN1, Q9UMX0-2
# Chain of UBQLN1, Q9UMX0-2 (Q9UMX0 other isoform, or with tags, fused parts or gaps): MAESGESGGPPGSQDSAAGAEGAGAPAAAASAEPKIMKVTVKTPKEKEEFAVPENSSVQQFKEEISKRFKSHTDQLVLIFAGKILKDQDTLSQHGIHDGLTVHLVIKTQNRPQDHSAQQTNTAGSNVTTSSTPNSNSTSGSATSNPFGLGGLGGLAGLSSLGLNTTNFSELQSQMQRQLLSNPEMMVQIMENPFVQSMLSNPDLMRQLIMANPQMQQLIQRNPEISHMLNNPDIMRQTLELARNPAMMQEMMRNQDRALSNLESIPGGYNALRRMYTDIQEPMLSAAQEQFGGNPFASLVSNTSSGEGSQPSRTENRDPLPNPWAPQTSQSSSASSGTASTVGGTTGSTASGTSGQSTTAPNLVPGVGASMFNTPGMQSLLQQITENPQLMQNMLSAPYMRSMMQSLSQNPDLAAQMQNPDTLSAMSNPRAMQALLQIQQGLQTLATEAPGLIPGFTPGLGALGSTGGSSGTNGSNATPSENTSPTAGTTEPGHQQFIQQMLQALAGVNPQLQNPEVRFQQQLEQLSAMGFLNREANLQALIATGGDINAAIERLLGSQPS
row,Variant,effect of a mutation on the interaction
1,A111G,disrupting interaction

# Variants of: B1
# Conditions: with ubql1_human UBQLN1, Q9UMX0
# Chain of ubql1_human UBQLN1, Q9UMX0 (Q9UMX0 whole entry): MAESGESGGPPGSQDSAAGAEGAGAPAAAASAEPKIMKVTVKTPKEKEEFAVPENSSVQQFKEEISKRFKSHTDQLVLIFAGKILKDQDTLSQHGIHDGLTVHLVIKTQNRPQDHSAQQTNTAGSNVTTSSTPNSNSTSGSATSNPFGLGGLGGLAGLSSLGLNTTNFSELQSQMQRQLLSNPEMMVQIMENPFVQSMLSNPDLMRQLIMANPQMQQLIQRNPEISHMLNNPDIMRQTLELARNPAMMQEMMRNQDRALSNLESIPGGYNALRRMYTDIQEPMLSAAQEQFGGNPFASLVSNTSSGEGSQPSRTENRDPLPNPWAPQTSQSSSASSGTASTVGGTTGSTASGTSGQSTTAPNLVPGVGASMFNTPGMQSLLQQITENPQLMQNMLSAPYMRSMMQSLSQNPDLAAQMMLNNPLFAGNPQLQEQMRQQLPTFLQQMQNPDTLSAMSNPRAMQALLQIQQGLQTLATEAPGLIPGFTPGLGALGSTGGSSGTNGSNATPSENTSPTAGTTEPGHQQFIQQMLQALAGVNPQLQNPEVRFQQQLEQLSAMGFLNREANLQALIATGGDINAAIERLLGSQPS
row,Variant,effect of a mutation on the interaction
1,A111G,disrupting interaction

# Variants of: B2
# Conditions: with bhe40_human BHLHE40, O14503
# Chain of bhe40_human BHLHE40, O14503 (O14503 whole entry): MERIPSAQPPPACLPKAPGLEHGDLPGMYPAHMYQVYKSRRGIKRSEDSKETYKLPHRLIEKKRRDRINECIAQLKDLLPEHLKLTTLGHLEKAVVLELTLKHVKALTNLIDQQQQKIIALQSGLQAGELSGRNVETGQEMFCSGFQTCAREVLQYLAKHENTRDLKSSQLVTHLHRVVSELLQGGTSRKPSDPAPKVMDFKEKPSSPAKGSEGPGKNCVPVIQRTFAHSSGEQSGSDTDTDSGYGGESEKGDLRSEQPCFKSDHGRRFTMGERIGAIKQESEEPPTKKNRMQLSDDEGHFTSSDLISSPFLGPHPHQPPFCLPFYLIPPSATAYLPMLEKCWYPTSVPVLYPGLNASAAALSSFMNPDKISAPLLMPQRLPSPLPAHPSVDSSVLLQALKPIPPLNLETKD
row,Variant,effect of a mutation on the interaction
1,A129T,disrupting interaction

# Variants of: B3
# Conditions: with mtus2_human MTUS2, Q5JR59
row,Variant,effect of a mutation on the interaction
1,S140F,disrupting interaction
